Numbering of substitutions follows the chain as printed.
T1: human β-Klotho (human, UniProt Q86Z14 1-1044)
T1 sequence (looked up): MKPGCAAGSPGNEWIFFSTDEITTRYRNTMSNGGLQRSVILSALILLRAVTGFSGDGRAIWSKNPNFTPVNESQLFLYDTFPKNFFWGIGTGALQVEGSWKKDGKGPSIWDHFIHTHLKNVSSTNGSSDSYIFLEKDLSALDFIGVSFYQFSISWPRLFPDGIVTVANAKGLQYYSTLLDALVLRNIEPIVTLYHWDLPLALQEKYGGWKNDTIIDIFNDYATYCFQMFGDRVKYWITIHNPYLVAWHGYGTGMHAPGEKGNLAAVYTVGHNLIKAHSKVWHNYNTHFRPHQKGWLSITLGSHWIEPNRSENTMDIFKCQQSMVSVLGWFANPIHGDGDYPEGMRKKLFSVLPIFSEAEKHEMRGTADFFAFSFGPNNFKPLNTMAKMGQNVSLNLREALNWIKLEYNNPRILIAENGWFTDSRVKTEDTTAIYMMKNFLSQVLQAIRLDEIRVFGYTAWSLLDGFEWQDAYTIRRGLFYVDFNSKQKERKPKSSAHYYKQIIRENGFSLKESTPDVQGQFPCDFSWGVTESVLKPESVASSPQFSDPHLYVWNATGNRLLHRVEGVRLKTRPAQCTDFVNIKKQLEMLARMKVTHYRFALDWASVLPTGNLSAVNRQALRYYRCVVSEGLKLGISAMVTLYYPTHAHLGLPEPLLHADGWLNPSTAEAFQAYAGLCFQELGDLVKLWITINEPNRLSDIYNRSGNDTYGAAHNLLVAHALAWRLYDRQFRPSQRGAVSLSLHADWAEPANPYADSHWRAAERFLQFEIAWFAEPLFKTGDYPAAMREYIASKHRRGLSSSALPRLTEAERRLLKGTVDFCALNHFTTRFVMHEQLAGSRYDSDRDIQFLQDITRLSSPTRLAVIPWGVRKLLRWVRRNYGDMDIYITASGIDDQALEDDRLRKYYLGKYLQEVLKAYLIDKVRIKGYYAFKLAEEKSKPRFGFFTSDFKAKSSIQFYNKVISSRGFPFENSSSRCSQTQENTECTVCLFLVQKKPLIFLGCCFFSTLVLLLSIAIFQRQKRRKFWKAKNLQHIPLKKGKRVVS

B1: 20 kDa PEG-FGF-21 P(5)TSSP mutant conjugate (ligand)
chain: MHPIPTSSPLLQFGGQVRQRYLYTDDAQQTEAHLEIREDGTVGGAADQSPESLLQLKALKPGVIQILGVKTSRFLCQRPDGALYGSLHFDPEACSFRELLLEDGYNVYQSEAHGLPLHLPGNKSPHRDPAPRGPARFLPLPGLPPALPEPPGILAPQPPDVGSSDPLSMVGPSQGRSPSYAS
modifications: GalNAc-SA-PEG-20 kDa (glycoPEG) on the introduced threonine 6
B2: 20 kDa PEG-FGF-21 P(156)TP mutant conjugate (ligand)
chain: B1 chain with T6D, Q157T
modifications: GalNAc-SA-PEG-20 kDa (glycoPEG) on the introduced threonine 157
B3: 30 kDa PEG-FGF-21 P(172)TQGAS mutant conjugate (ligand)
chain: B1 chain with T6D, S173T, R176A
modifications: GalNAc-SA-PEG-30 kDa (glycoPEG) on the introduced threonine 173
B4: 20 kDa PEG-FGF-21 P(172)TQGAS mutant conjugate (ligand)
chain: B1 chain with T6D, S173T, R176A
modifications: GalNAc-SA-PEG-20 kDa (glycoPEG) on the introduced threonine 173
B5: 30 kDa PEG-FGF-21 P(156)TP mutant conjugate (ligand)
chain: B1 chain with T6D, Q157T
modifications: GalNAc-SA-PEG-30 kDa (glycoPEG) on the introduced threonine 157
B6: 30 kDa PEG-FGF-21 P(5)TSSP mutant conjugate (ligand)
chain: B1 chain
modifications: GalNAc-SA-PEG-30 kDa (glycoPEG) on the introduced threonine 6

Molecular target: T1, human β-Klotho
Experiment: cell-based or functional assay

ERK phosphorylation HEK-293 cells expressing β-Klotho EC50 values [nM] | Binder
293 | B1
109 | B2
177 | B3
86 | B4
188 | B5
> 3000 | B6
